Assay results: patent US20200079876A1 (BIOVERATIV USA, published 2020)

T1: recombinant human complement component C1s (rhC1s) (human, UniProt P09871 16-688)
T1 sequence (looked up): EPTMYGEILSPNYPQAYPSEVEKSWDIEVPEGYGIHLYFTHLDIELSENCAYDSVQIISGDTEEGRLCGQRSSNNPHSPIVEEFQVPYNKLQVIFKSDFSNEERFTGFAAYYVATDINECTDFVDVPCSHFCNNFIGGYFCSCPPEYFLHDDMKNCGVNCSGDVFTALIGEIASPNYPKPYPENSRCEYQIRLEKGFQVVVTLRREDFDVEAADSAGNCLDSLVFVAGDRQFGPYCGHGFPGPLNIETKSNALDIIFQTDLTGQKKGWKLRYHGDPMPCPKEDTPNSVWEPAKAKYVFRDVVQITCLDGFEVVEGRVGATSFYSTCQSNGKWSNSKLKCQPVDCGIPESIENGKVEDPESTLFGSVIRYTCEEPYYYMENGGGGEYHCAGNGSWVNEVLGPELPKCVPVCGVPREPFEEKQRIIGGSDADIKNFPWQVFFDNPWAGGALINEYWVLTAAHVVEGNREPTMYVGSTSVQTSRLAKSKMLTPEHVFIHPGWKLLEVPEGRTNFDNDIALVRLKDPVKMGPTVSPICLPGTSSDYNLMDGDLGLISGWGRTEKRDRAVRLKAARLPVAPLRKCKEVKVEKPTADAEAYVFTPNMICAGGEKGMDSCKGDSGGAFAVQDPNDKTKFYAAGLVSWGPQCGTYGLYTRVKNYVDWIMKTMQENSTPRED

T2: Pro-C1s
T2 construct: also called purified pro-C1s protein
T2 chain: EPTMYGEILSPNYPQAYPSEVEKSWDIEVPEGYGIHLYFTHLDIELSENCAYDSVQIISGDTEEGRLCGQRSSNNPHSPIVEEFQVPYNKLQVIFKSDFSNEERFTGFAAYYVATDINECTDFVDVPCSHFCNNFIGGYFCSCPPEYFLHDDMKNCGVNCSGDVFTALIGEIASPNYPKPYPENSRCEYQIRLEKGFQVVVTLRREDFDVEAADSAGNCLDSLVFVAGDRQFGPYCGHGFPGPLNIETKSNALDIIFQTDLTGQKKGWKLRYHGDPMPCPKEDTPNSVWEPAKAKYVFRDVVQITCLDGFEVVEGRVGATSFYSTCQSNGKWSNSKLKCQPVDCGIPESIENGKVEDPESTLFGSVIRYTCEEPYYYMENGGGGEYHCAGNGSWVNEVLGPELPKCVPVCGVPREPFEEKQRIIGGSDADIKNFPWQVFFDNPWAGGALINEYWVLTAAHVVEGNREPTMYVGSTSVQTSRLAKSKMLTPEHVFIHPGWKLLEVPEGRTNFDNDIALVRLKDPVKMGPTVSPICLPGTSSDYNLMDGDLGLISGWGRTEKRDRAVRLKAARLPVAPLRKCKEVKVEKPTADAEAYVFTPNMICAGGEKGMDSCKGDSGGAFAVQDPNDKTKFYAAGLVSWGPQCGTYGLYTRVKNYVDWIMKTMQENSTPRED

T3: purified human activated C1s protein, two-chain form (Homo sapiens, UniProt P09871 16-688)
T3 construct: Purified protein bought from EMD Millipore; Biotin-labeled in the clone screen; also called active C1s; native C1s protein
T3 sequence: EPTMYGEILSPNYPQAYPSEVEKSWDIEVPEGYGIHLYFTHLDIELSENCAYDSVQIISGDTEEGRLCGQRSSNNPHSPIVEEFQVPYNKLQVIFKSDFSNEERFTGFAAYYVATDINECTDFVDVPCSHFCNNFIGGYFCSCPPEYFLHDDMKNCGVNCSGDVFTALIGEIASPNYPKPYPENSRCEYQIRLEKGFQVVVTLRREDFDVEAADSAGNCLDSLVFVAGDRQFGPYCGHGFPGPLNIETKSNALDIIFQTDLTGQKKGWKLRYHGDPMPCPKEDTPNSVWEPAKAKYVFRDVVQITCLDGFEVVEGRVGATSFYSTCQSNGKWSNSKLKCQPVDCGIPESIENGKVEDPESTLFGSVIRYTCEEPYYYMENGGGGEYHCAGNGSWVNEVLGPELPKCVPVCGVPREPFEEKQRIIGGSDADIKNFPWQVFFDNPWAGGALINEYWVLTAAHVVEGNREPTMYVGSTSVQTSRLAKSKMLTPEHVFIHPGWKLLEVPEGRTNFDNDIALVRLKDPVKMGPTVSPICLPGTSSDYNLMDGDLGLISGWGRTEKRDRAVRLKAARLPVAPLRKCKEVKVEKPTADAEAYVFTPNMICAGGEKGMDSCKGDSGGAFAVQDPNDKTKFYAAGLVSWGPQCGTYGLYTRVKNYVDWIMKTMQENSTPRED

B1: antibody IPN-M1 (antibody, V domains shown)
VH: EVQLQQSGAELVRPGASVKLSCTASGFNIKDDYIHWVKQRPEQGLEWIGRIDPADDHTKYAPKFQDKATMTADTSSNTACLQLNSLTSEDTAVYYCAIYGSGWAWFPYWGQGTLVSVSA
VL: DIVLTQSTDYLAVSLGQRATISCKASQSVDYDGDSYMNWYQQKPGQPPKLLIYAASNLESGIPARFSGSGSGTDFTLNIHPVEEEDAATYYCQQSNEDPWTFGGGTKLEIK
notes: Mouse monoclonal antibody (NZBW hybridoma); of the 17, thirteen were IgG2a, one IgG2b, three IgG1; Same VL and VH as IPN-M3 and IPN-M13
B2: antibody IPN-M15 (antibody, V domains shown)
VH: EVKLEQSGAELVRPGASVKLSCTASGFNIKDDYIHWVKQRPEQGLEWIGRIDPADDHTKYAPKFQDKATMTADTSSNTACLQLNSLTSEDTAVYYCAIYGSGWAWFPYWGQGTLVSVSA
VL: FALMTQSTDYLAVSLGQRATISCKASQSVDYDGDSYMNWYQQKPGQPPKLLIYAASNLESGIPTRFSGSGFGTDFTLNIHPVEEEDAATYYCQQSNEDPWTFGGGPKLEIK
notes: Mouse monoclonal antibody (NZBW hybridoma)
B3: antibody IPN-M28 (antibody, V domains shown)
VH: EVQLQQSGAELVRPGASVKLSCTASGFNIKDDYIHWVKQRPEQGLEWIGRIDPADDHTKYAPKFQDKATMTADTSSNTACLQLNSLTSEDTAVYYCAIYGSGWAWFPYWGQGTLVSVSA
VL: DIVLTQTPDYLAVSLGQRATISCKASQSVDYDGDSYMNWYQQKPGQPPKLLIYAASNLESGIPARFSGSGSGTDFTLNIHPVEEEDAATYYCQQSNEDPWTFGGGTKLEIK
notes: as for B2
B4: antibody IPN-M18 (antibody, V domains shown)
VH: EVQLQQSGPELVKPGASVKISCKASGYSFTGYYIHWVKQSPEKSLEWIGEINPTTNDTTYNQKFKAKATLTVDKSSNTAYMQLKSLTSEDSAVYYCSRDISGPAWFAYWGQGTLVTVSA
VL: DIVLTQTTAIMSASPGEKVTMTCSASSSISYMYWFQQKPGTSPKRWIYDTSKLASGVPARFSGSGSGTSYSLTISTMEAEDAATYYCHQRSSDPTFGGGTKLEINR
notes: as for B2
B5: antibody IPN-M9 (antibody, V domains shown)
VH: QVQLQQPGAELVRPGASVKLSCKVSGYTFTRYWMHWVKQRPGQGLEWIGEINPSNSDTDYNEEFKSKATLTVDKSSSTAYMHLSSLTSEDSAVYYCTIDDSAYGWFAYWGQGTLVTVSA
VL: DIVMTQSPAIMSASPGERVTMTCSASSSISYMHWYHQKPGTSPKRWIYDTSKLASGVPARFSGSGSGTSYSLTISSMEAEDAATYYCHQRSSFPTFGAGTKLELK
notes: as for B2
B6: antibody IPN-M29 (antibody, V domains shown)
VH: EVQLQQSGPELVKPGASVKISCKASGYSFTGFYMQWVKQSPEKNLEWIGEINPTTGDETYNQKFQAKATLTVDKSSSTAYMQLKSLTSEDSAVYFCASDFYDGSFAWFEYWGKDYLTVSA
VL: DIVLTQSPVIMSASPGEKVTMTCSASSSISYIHWYQQKPGTSPKRWIYDTSKLASGVPARFSGSGSGTSYSLTISSMEAEDAATYYCHQRSSYLTFGSGTKLEIK
notes: as for B2
B7: antibody IPN-M33 (antibody, V domains shown)
VH: QVKLQQSGPELVKPGTSVRISCKTSGYSFTGYYMHWVKQSPEKSLEWIGEINPSIGDITYNQRFKAKATLTVDKSSSTAYMQLKSLTSEDSAVYYCASDYYGGGFAWFAYWGQGTLVTVSA
VL: DIVMTQSPAIMSASSGEKVTMTCSASSSINYMHWYQQKPGTSPKRWIYDTSKLASGVPARFSGSGSGTSYSLTISSMEAEDTATYYCHQRSDSLTFGSGTKLEIK
notes: as for B2
B8: antibody IPN-M24 (antibody, V domains shown)
VH: EVKLQQSGAELVRPGVSVKISCKVSGYTFTDYAMHCVKQSHAKSLEWIGVISIYNGDASYNQKFKDKATMTVDKSSSTSYMDLARLTSEESAVYNCVREAPYLITTVFYAMDYWGQGTSVTVSS
VL: DIVMTQSPAIMSASPGEKVTMTCSANSSISYMHWYQQKPGTSPKRWIYDTSKLASGVPTRFSGSGSGTSYSLTISSMEAEDAATYYCHQRSFYLTFGSGTKLEIK
notes: as for B2
B9: antibody IPN-M27 (antibody, V domains shown)
VH: QVQLQQSGAELVRPGASVKLSCKVSGYTFTRYWMHWVKQRPGQGLEWIGEINPSNSDTDYNEEFKSKATLTVDKSSSTAYMHLSNLTSEDSAVYYCTIDDSAYGWFAYWGQGTLVTVSA
VL: DIVLTQSTAIMSASPGERVTMTCSASSSISYMHWYHQKPGTSPKRWIYDTSKLASGVPARFSGSGSGTSYSLAISSMEAEDAATYYCHQRSSFPTFGAGTKLELK
notes: as for B2
B10: antibody IPN-M23 (antibody, V domains shown)
VH: QVQLQQPGAELVRPGASVKLSCKVSGYTFTRYWMHWVKQRPGQGLEWIGEINPSNSDTDYNEEFKSKATLTVDKSSSTAYMHLSSLTSEDSAVYYCTIDDSVYGWFAYWGQGTLVTVSA
VL: DIVMTQSPAIMFASPGERVTMTCSASSSISYMPWYPQKPGPSPKRWIYDTSKLASGVPARFSGSGFGTFYSLTISSMEAEDAAPYYCHQRSSFPPFGAGTKLELK
notes: as for B2
B11: antibody IPN-M10 (antibody, V domains shown)
VH: QVQLQQPGAELVRPGASVKLSCKVSGYTFTRYWMHWVKQRPGQGLEWIGEINPSNSDTDYNEEFKSKATLTVDKSSSTAYMHLSSLTSEDSAVYYCTIDDSVYGWFAYWGQGTLVTVSA
VL: DIVITQSPAIMSASPGERVTMTCSASSSISYMHWYHQKPGTSPKRWIYDTSKLASGVPARFSGSGSGTSYSLTISSMEAEDAATYYCHQRSSFPTFGAGTKLELK
notes: as for B2

Assays:
[1] = target: T1, recombinant human complement component …; assay: cell-based or functional assay
[2] = target: T1, recombinant human complement component …; assay: cell-based or functional assay; remark: listed apart in the source
Pro-C1s = target: T2, Pro-C1s; assay: bio-layer interferometry (BLI), kinetic analysis
[3] = target: T3, purified human activated C1s protein, …; assay: bio-layer interferometry (BLI), kinetic analysis

| Binder | inhibition of C1s protease activity (relative to nafamostat) [1] | Inhibition of C1s Protease Activity (%), single point with clone supernatant, relative to 100 nM nafamostat [2] | Kd (Pro-C1s) | koff (Pro-C1s) | kon (Pro-C1s) | Kd [3] | koff [3] | kon [3] |
| --- | --- | --- | --- | --- | --- | --- | --- | --- |
| B1 | > 50% | 79% | 92.5 nM | 0.000392 s⁻¹ | 4120 M⁻¹ s⁻¹ | 0.26 nM | 0.000213 s⁻¹ | 817000 M⁻¹ s⁻¹ |
| B2 | > 50% | 100% | 3.37 nM | 0.000194 s⁻¹ | 57500 M⁻¹ s⁻¹ | 0.172 nM | 0.000149 s⁻¹ | 858000 M⁻¹ s⁻¹ |
| B3 | > 50% | 92% | 16.7 nM | 0.000178 s⁻¹ | 10600 M⁻¹ s⁻¹ | 0.236 nM | 0.000215 s⁻¹ | 914000 M⁻¹ s⁻¹ |
| B4 | > 50% | 68% | 1.89 nM | 0.000395 s⁻¹ | 209000 M⁻¹ s⁻¹ | 1.98 nM | 0.00102 s⁻¹ | 517000 M⁻¹ s⁻¹ |
| B5 | > 50% | 69% | 4.69 nM | 0.000299 s⁻¹ | 63700 M⁻¹ s⁻¹ | 0.608 nM | 0.000361 s⁻¹ | 594000 M⁻¹ s⁻¹ |
| B6 | > 50% | 73% | 5.55 nM | 0.000408 s⁻¹ | 73600 M⁻¹ s⁻¹ | 1.28 nM | 0.000594 s⁻¹ | 463000 M⁻¹ s⁻¹ |
| B7 | > 50% | 97% | 0.3 nM | 2.52e-05 s⁻¹ | 83800 M⁻¹ s⁻¹ | 0.329 nM | 0.000154 s⁻¹ | 467000 M⁻¹ s⁻¹ |
| B8 | > 50% | 68% | 4.46 nM | 0.00036 s⁻¹ | 80800 M⁻¹ s⁻¹ | 1.01 nM | 0.000499 s⁻¹ | 492000 M⁻¹ s⁻¹ |
| B9 | > 50% | 64% | 11.1 nM | 0.000283 s⁻¹ | 25400 M⁻¹ s⁻¹ | 0.593 nM | 0.000394 s⁻¹ | 664000 M⁻¹ s⁻¹ |
| B10 | > 50% | 74% | 7.17 nM | 0.000347 s⁻¹ | 48400 M⁻¹ s⁻¹ | 0.57 nM | 0.000353 s⁻¹ | 619000 M⁻¹ s⁻¹ |
| B11 | > 50% | 67% | 7.98 nM | 0.000339 s⁻¹ | 42500 M⁻¹ s⁻¹ | 0.607 nM | 0.000369 s⁻¹ | 608000 M⁻¹ s⁻¹ |
